The values below come from paper PMC9481563, “Structural insights into the pSer/pThr dependent regulation of the SHP2 tyrosine phosphatase in insulin and CD28 signaling” (Nature Communications, 2022).

What all share (assay): fluorescence polarisation; competitive titration: labelled CF-ppIRS1 and protein both fixed (50-80% saturation), unlabelled competitor peptide varied; triplicates; Kd from cubic fit
Holding throughout (conditions): both partners purified
(Fluorescence polarisation rises when a labelled molecule tumbles more slowly, as on binding a larger partner.)

The target in assay [1] is T1, PIK3R1 (p85) C-terminal SH2 domain (614-724) (human, UniProt P27986 614-724).
T1 construct: PIK3R1 regulatory subunit of PI3K (p85), cSH2 domain, cloned from a HEK293T cDNA pool, UniProt P27986, residues 614-724; also called cSH2; PI3KR1 cSH2; source: E. coli BL21 (DE3), purified (Ni-NTA, anion exchange)

Assay [2] concerns the target T2, PIK3R1 (p85) N-terminal SH2 domain (321-433) (human, UniProt P27986 321-433).
T2 construct: PIK3R1 regulatory subunit of PI3K (p85), nSH2 domain, cloned from a HEK293T cDNA pool, UniProt P27986, residues 321-433; also called nSH2; PI3KR1 nSH2; source: E. coli BL21 (DE3), purified (Ni-NTA, anion exchange)

Assay [3] addresses T3, PTPRε first catalytic domain, inactive C335S mutant (107-399), MBP-tagged (human, UniProt P23469 107-399, C335S).
T3 construct: PTPRε receptor tyrosine phosphatase, first phosphatase domain, cloned from a HEK293T cDNA pool, UniProt P23469, residues 107-399; first cloned into pBH4 (N-terminal His6); also called receptor tyrosine phosphatase PTPRε; source: E. coli BL21 (DE3), purified (Ni-NTA, anion exchange)

Where no end group is shown, it is not given here. [ ]: non-standard residue; d: D form. pY = N[C@@H](Cc1ccc(OP(=O)(O)O)cc1)C(=O)O; pT = C[C@@H](OP(=O)(O)O)[C@H](N)C(=O)O; pS = N[C@@H](COP(=O)(O)O)C(=O)O

T1 sequence (P27986 614-724): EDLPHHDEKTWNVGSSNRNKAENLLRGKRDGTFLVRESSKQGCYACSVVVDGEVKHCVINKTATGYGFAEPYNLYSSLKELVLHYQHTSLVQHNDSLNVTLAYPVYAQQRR
T2 sequence (P27986 321-433): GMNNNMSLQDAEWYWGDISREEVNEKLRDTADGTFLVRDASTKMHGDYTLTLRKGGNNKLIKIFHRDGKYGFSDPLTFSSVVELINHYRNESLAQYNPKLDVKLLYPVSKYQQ
T3 sequence (P23469 107-399 C335S): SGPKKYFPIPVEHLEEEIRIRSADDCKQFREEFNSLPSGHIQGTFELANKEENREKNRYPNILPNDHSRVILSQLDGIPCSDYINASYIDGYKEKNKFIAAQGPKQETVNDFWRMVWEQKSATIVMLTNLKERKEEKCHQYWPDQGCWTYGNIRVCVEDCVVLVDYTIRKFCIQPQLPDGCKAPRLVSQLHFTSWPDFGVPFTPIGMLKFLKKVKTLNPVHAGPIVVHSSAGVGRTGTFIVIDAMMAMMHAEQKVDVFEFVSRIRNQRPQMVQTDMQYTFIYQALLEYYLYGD

B1: ppIRS1, IRS1 peptide dually phosphorylated (pY632 + pS636) (peptide)
peptide: GRKGSGD[pY]MPM[pS]PKS
notes: human IRS1, 2nd YxxMSP motif around Y632, 15 amino acids; also called pY632-pS636 peptide; dually phosphorylated model peptide; source: synthetic peptide, bought: GeneScript Inc
Regarding B1, the binding result in assay [1] and in assay [2] was “binds” throughout.

B2: p0CD28, CD28 peptide with phosphotyrosine only (pY191) (peptide)
peptide: RSRLLHSD[pY]MNMTPRR
notes: human CD28 T-cell costimulatory receptor, cytoplasmic YMNMTP motif, 16 amino acids; also called singly Tyr phosphorylated CD28 peptide; source: synthetic peptide, bought: GeneScript Inc
Turning to B2, the binding result in assay [1], in assay [3] and in assay [2] was “binds” in each case.

B3: ppCD28, CD28 peptide dually phosphorylated (pY191 + pT195) (peptide)
peptide: RSRLLHSD[pY]MNM[pT]PRR
notes: human CD28 T-cell costimulatory receptor, cytoplasmic YMNMTP motif, 16 amino acids; also called pY191-pT195 peptide; source: synthetic peptide, bought: GeneScript Inc
As for B3, the binding result in assay [1], in assay [3] and in assay [2] was “binds” in each case.

B4: p0IRS1, IRS1 peptide with phosphotyrosine only (pY632) (peptide)
peptide: GRKGSGD[pY]MPMSPKS
notes: human IRS1, 2nd YxxMSP motif around Y632, 15 amino acids; also called singly phosphorylated model peptide; pTyr peptide; source: synthetic peptide, bought: GeneScript Inc
Turning to B4, the binding result in assay [1] and in assay [2] was “binds” in each case.
